Assays:
MazE-MazF(His)6 complex = MazE-MazF(His)6 complex (Escherichia coli, UniProt P0AE72;P0AE70 SEQ:1-82,SEQ:1-111); assay: EMSA; 1 uM complex; conditions: tags: C-terminal His6 on MazF; chain copies: MazF2-MazE2-MazF2 (stated); label: 32P
(His)6MazE(F53A) = (His)6MazE(F53A) (Escherichia coli, UniProt P0AE72 SEQ:1-82, F53A); assay: EMSA; data not shown; conditions: tags: N-terminal His6; chain copies: 2; label: 32P
(His)6MazE(E57Q) = (His)6MazE(E57Q) (Escherichia coli, UniProt P0AE72 SEQ:1-82, E57Q); assay: EMSA; data not shown; conditions: tags: N-terminal His6; chain copies: 2; label: 32P
(His)6MazE(R48A) = (His)6MazE(R48A) (Escherichia coli, UniProt P0AE72 SEQ:1-82, R48A); assay: EMSA; data not shown; conditions: tags: N-terminal His6; chain copies: 2; label: 32P
(His)6MazE-MazF complex = (His)6MazE-MazF complex (Escherichia coli, UniProt P0AE72;P0AE70 SEQ:1-82,SEQ:1-111); assay: EMSA; shift at 0.2 uM MazE, MazE:MazF 1:2; more than ten-fold enhancement over MazE; conditions: tags: N-terminal His6 on MazE; chain copies: MazF2-MazE2-MazF2 (stated); label: 32P
(His)6MazE = (His)6MazE (Escherichia coli, UniProt P0AE72 SEQ:1-82); assay: EMSA; discrete shift at 2 uM or higher; smear at 0.4-1.0 uM; 5 mM MgCl2, poly(dI-dC), 4 C; conditions: tags: N-terminal His6; chain copies: 2 (inferred); label: 32P
MazF = MazF (Escherichia coli, UniProt P0AE70 SEQ:1-111); assay: EMSA; no binding up to 20 uM; conditions: tags: untagged; chain copies: 2; label: 32P
(His)6MazE(S12A) = (His)6MazE(S12A) (Escherichia coli, UniProt P0AE72 SEQ:1-82, S12A); assay: EMSA; 4 uM; conditions: tags: N-terminal His6; chain copies: 2; label: 32P
(His)6MazE(R16A) = (His)6MazE(R16A) (Escherichia coli, UniProt P0AE72 SEQ:1-82, R16A); assay: EMSA; 4 uM; conditions: tags: N-terminal His6; chain copies: 2; label: 32P
(His)6MazE(K7A) = (His)6MazE(K7A) (Escherichia coli, UniProt P0AE72 SEQ:1-82, K7A); assay: EMSA; 4 uM; conditions: tags: N-terminal His6; chain copies: 2; label: 32P
(His)6MazE(R8A) = (His)6MazE(R8A) (Escherichia coli, UniProt P0AE72 SEQ:1-82, R8A); assay: EMSA; 4 uM; conditions: tags: N-terminal His6; chain copies: 2; label: 32P

B1: mazEF promoter 50-bp (dsDNA)
DNA 1: GCTCGTATCTACAATGTAGATTGATATATACTGTATCTACATATGATAGC
DNA 2: GCTATCATATGTAGATACAGTATATATCAATCTACATTGTAGATACGAGC
**Q.** Does B1 bind (MazE-MazF(His)6 complex)?
**A.** Result: binds

**Q.** Does B1 bind ((His)6MazE(F53A))?
**A.** Result: binds

**Q.** Does B1 bind ((His)6MazE(E57Q))?
**A.** Result: binds

**Q.** Does B1 bind ((His)6MazE(R48A))?
**A.** Result: binds

**Q.** Does B1 bind ((His)6MazE-MazF complex)?
**A.** Result: binds

**Q.** Does B1 bind ((His)6MazE)?
**A.** Result: binds

**Q.** Does B1 bind (MazF)?
**A.** Result: no binding

**Q.** Does B1 bind ((His)6MazE(S12A))?
**A.** Result: no binding

**Q.** Does B1 bind ((His)6MazE(R16A))?
**A.** Result: no binding

**Q.** Does B1 bind ((His)6MazE(K7A))?
**A.** Result: no binding

**Q.** Does B1 bind ((His)6MazE(R8A))?
**A.** Result: no binding
